Experimental data published in patent publication US20200392198A1 (UNIVERSITY OF COPENHAGEN, published 2020).
Substitutions are numbered along the chain they refer to. Ends that are not written are not given here. * marks the point of attachment. Palmitoyl = CCCCCCCCCCCCCCCC(=O)*; Lauroyl = CCCCCCCCCCCC(=O)*

T1: human GLP-2 receptor (human, UniProt O95838 1-553)
T1 sequence (looked up): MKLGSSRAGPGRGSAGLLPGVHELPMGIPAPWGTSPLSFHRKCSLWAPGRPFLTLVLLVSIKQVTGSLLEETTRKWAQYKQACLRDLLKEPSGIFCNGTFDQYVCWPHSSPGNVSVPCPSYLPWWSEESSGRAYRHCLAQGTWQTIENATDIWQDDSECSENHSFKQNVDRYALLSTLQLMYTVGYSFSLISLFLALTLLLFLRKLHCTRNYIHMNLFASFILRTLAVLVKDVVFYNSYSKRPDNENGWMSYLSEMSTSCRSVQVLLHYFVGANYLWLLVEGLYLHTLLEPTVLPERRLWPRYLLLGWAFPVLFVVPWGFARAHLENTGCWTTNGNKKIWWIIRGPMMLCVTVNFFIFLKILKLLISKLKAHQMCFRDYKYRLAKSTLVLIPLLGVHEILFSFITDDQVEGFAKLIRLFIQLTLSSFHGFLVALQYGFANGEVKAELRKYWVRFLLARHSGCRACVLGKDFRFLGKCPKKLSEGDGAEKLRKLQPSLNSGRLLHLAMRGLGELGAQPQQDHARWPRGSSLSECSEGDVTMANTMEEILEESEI

T2: human GIP receptor (human, UniProt P48546 22-466)
T2 sequence (looked up): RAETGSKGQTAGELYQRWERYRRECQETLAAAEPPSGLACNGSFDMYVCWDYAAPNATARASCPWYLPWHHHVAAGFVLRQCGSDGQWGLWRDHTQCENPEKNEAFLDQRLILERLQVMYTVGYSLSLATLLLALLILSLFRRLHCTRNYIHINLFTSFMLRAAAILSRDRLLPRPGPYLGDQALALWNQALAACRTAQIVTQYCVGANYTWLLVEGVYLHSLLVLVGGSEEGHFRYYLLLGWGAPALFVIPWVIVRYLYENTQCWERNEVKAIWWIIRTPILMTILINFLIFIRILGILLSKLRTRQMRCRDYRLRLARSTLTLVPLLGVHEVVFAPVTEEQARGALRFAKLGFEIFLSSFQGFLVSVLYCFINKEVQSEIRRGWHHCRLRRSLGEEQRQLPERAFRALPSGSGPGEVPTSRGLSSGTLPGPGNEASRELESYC

B1: GIP-GLP-2 co-agonist 22 (peptide)
peptide: HADGTFSSDYSTILDNLAARDFINWLIQTKITD
modifications: not fully specified (residue 1, N-terminus); also: C16 acyl group on His 1 (attachment site not given here)
B2: GIP-GLP-2 co-agonist 29 (peptide)
peptide: B1 peptide with S7I, D33K
modifications: not fully specified (residue 1, N-terminus); also: C16 acyl group on His 1 (attachment site not given here)

Target: T1, human GLP-2 receptor
Assay: cell-based or functional assay

Row | EC50 (cAMP) [nM] | Emax (10 µM), % of native GLP-2 [%] | fold (EC50 vs native GLP-2) [fold] | logEC50 (cAMP) | Binder
1 | 107 | 91 | 89 | -6.97 | HADGTFISDYSTILDNLAARDFINWLIQTK(Palmitoyl)ITK [GIP-GLP-2 co-agonist 31]
2 | 20 | 71 | 17 | -7.7 | HADGTFISDYSTILDNLAARDFINWLIQTKGK(Palmitoyl)K [GIP-GLP-2 co-agonist 36]
3 | 36 | 73 | 30 | -7.44 | HADGTFISDYSTILDNLAARDFINWLIQTK(Lauroyl)ITK [GIP-GLP-2 co-agonist 30]
4 | 1.2 | 94 | 0.96 | -8.94 | HADGTFISDYSTILDNLAARDFINWLIQTKGKKNDWKHNITQ [GIP-GLP-2 co-agonist 34]
5 | 1.4 | 57 | 1.2 | -8.85 | HADGTFSSDYSTILDNLAARDFINWLIQTK(Palmitoyl)ITD [GIP-GLP-2 co-agonist 23]
6 | 1.3 | 72 | 1.1 | -8.88 | B1
7 | 0.31 | 100 | 0.26 | -9.51 | HADGTFISDYSTILDKLAARDFINWLIQTKITK [GIP-GLP-2 co-agonist 26]
8 | 6.2 | 91 | 5.1 | -8.21 | HADGTFISDYSTILDNLAARDFINWLIQTKITK (C12 acyl group on Lys 33 (K(C12/33), 'with C12 pos 33')) [GIP-GLP-2 co-agonist 32]
9 | 13 | 82 | 11 | -7.89 | HADGTFISDYSTILDNLAARDFINWLIQTKITK (C16 acyl group on Lys 33 (K(c16/33), 'with C16 pos 33')) [GIP-GLP-2 co-agonist 33]
10 | 17 | 82 | 14 | -7.76 | B2
11 | 1.2 | 112 | 0.98 | -8.93 | HADGTFISDYSTILDNLAAKDFINWLIQTKITK [GIP-GLP-2 co-agonist 28]
12 | 0.74 | 96 | 0.62 | -9.13 | HADGTFISDYSKILDNLAARDFINWLIQTKITK [GIP-GLP-2 co-agonist 24]
13 | 3.5 | 92 | 2.9 | -8.46 | HADGTFISDYSTIKDNLAARDFINWLIQTKITK [GIP-GLP-2 co-agonist 25]
14 | 0.56 | 100 | 0.47 | -9.25 | HADGTFISDYSTILDNLKARDFINWLIQTKITK [GIP-GLP-2 co-agonist 27]
15 | 2.3 | 68 | 1.9 | -8.63 | HADGTFISDYSTILDNLAARDFINWLIQTKGK(Lauroyl)K [GIP-GLP-2 co-agonist 35]

Target: T2, human GIP receptor
Assay: cell-based or functional assay

Row | EC50 (cAMP) [nM] | Emax (10 µM), % of native GIP [%] | fold (EC50 vs native GIP) [fold] | logEC50 (cAMP) | Binder
16 | 1.7 | 91 | 19 | -8.77 | HADGTFISDYSTILDNLAARDFINWLIQTK(Palmitoyl)ITK [GIP-GLP-2 co-agonist 31]
17 | 0.79 | 100 | 8.9 | -9.1 | HADGTFISDYSTILDNLAARDFINWLIQTKGK(Palmitoyl)K [GIP-GLP-2 co-agonist 36]
18 | 0.63 | 100 | 7.1 | -9.2 | HADGTFISDYSTILDNLAARDFINWLIQTK(Lauroyl)ITK [GIP-GLP-2 co-agonist 30]
19 | 0.1 | 100 | 1.1 | -10 | HADGTFISDYSTILDNLAARDFINWLIQTKGKKNDWKHNITQ [GIP-GLP-2 co-agonist 34]
20 | 0.76 | 81 | 8.5 | -9.12 | HADGTFSSDYSTILDNLAARDFINWLIQTK(Palmitoyl)ITD [GIP-GLP-2 co-agonist 23]
21 | 0.41 | 100 | 4.6 | -9.39 | B1
22 | 0.03 | 100 | 0.34 | -10.5 | HADGTFISDYSTILDKLAARDFINWLIQTKITK [GIP-GLP-2 co-agonist 26]
23 | 0.15 | 100 | 1.7 | -9.81 | HADGTFISDYSTILDNLAARDFINWLIQTKITK (C12 acyl group on Lys 33 (K(C12/33), 'with C12 pos 33')) [GIP-GLP-2 co-agonist 32]
24 | 0.32 | 100 | 3.6 | -9.5 | HADGTFISDYSTILDNLAARDFINWLIQTKITK (C16 acyl group on Lys 33 (K(c16/33), 'with C16 pos 33')) [GIP-GLP-2 co-agonist 33]
25 | 1.82 | 115 | 20 | -8.74 | B2
26 | 0.2 | 100 | 2.2 | -9.7 | HADGTFISDYSTILDNLAAKDFINWLIQTKITK [GIP-GLP-2 co-agonist 28]
27 | 0.15 | 100 | 1.7 | -9.82 | HADGTFISDYSKILDNLAARDFINWLIQTKITK [GIP-GLP-2 co-agonist 24]
28 | 0.44 | 92 | 4.9 | -9.36 | HADGTFISDYSTIKDNLAARDFINWLIQTKITK [GIP-GLP-2 co-agonist 25]
29 | 0.55 | 100 | 6.2 | -9.26 | HADGTFISDYSTILDNLKARDFINWLIQTKITK [GIP-GLP-2 co-agonist 27]
30 | 0.48 | 99 | 5.4 | -9.32 | HADGTFISDYSTILDNLAARDFINWLIQTKGK(Lauroyl)K [GIP-GLP-2 co-agonist 35]
